Laboratory results as given in publication PMC6565432.

Molecular target: VAPB (endogenous, COS-7 cells) (African green monkey (endogenous in COS-7))
Assay: proximity ligation

Substance: ACBD5 (endogenous, COS-7 cells) (natural protein)
- PLA signals per cell (PLA signals per cell): 5.6
- PLA signals per cell (single plane) (PLA signals per cell): 10.4
- PLA signals per cell (z-stack) (PLA signals per cell): 11.3
